The test addresses Human Hsp90α (human) (UniProt P07900). In words: cryo-EM structure.

“MBP (maltose-binding protein)-GR ligand-binding domain (LBD) (F602S) (520-777) (from UniProt P04150 520-777) (domain or fragment)” registered a stoichiometry N (GR per Hsp90 dimer) of 1.

(Values after publication PMC8994517.)
